This is an account of results in publication PMC11326279 (bioRxiv, 2024).

For this experiment, the target named is FtsH with a C-terminal FLAG epitope, chromosomally encoded (E. coli, UniProt P0AAI3 1-644). Nature of the experiment: cryo-EM structure.
Chain of FtsH with a C-terminal FLAG epitope, chromosomally encoded (P0AAI3 whole entry): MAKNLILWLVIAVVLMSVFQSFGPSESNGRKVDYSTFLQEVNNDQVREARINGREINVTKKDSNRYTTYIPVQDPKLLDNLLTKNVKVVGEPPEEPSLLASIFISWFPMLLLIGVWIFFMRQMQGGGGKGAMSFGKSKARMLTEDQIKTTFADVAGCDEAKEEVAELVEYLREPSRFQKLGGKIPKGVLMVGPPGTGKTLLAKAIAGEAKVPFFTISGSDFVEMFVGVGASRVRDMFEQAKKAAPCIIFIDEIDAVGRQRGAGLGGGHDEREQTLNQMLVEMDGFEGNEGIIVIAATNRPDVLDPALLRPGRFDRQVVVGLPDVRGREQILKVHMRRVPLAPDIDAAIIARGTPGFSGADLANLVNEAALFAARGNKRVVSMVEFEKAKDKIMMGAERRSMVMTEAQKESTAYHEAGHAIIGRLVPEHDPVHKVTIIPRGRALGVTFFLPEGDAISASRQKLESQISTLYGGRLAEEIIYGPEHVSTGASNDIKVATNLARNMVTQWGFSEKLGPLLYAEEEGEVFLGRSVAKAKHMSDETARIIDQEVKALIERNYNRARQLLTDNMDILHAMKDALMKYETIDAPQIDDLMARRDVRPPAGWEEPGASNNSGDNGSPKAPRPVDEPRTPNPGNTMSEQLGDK

B1: HflC, endogenous (natural protein, E. coli (endogenous in BL21(DE3)), UniProt P0ABC3 1-334, looked up)
chain: MRKSVIAIIIIVLVVLYMSVFVVKEGERGITLRFGKVLRDDDNKPLVYEPGLHFKIPFIETVKMLDARIQTMDNQADRFVTKEKKDLIVDSYIKWRISDFSRYYLATGGGDISQAEVLLKRKFSDRLRSEIGRLDVKDIVTDSRGRLTLEVRDALNSGSAGTEDEVTTPAADNAIAEAAERVTAETKGKVPVINPNSMAALGIEVVDVRIKQINLPTEVSEAIYNRMRAEREAVARRHRSQGQEEAEKLRATADYEVTRTLAEAERQGRIMRGEGDAEAAKLFADAFSKDPDFYAFIRSLRAYENSFSGNQDVMVMSPDSDFFRYMKTPTSATR
For B1, the binding result is “binds”.

B2: HflK, endogenous (natural protein, E. coli (endogenous in BL21(DE3)), UniProt P0ABC7 1-419, looked up)
chain: MAWNQPGNNGQDRDPWGSSKPGGNSEGNGNKGGRDQGPPDLDDIFRKLSKKLGGLGGGKGTGSGGGSSSQGPRPQLGGRVVTIAAAAIVIIWAASGFYTIKEAERGVVTRFGKFSHLVEPGLNWKPTFIDEVKPVNVEAVRELAASGVMLTSDENVVRVEMNVQYRVTNPEKYLYSVTSPDDSLRQATDSALRGVIGKYTMDRILTEGRTVIRSDTQRELEETIRPYDMGITLLDVNFQAARPPEEVKAAFDDAIAARENEQQYIREAEAYTNEVQPRANGQAQRILEEARAYKAQTILEAQGEVARFAKLLPEYKAAPEITRERLYIETMEKVLGNTRKVLVNDKGGNLMVLPLDQMLKGGNAPAAKSDNGASNLLRLPPASSSTTSGASNTSSTSQGDIMDQRRANAQRNDYQRQGE
Regarding B2, the binding result was “binds”.
